Experiment: yeast display, Sf9 membrane polyspecificity reagent, FACS + sequencing; frameworks hold sequencing errors
Summary of the method: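 Using colony PCR, genes from sorted yeast display clones were amplified, then sequenced on MiSeq at 2 × 250 and filtered by CDR length. The clones had been stained with 10% biotinylated, detergent-solubilized Sf9 membrane reagent for 1 hour at 4 °C and sorted by FACS into low and high (top ~1%) gates on anti-HA and streptavidin fluorescence. Polyreactivity labels come from the gate of origin.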

Row | Sequence | polyreactivity (PSR sort gate)
1 | QVQLEETGGRLVQAGARLRLSCDASGYIFFFYAMGWYRHAPGKERELDASITYRGGSTYYADSVKGRFTLSRDYAKNTVYLQINSLKPEDTAVYYCIVDGGGPLGPHGFPFDYWGQGTQVTVSS | low polyreactivity
2 | QVQLVESGGGVVQAGGSLRLSCAASGRIFVGYDMGWYRQAPGKEWELVAAINRSGSSTYYADSVKGRFTISRDNAKNTVYLQMNSLKPEDTAVYYCNDRSGNRYGPRYDYWGQGTQVTVSS | high polyreactivity
3 | QVQLVESGGGLVQAGGSLRLSCAASGFTFPWYAMGWYRQAPGKERELVAAITSGGGSTYYADSVKGRFTISRYNAKNTVYLQMNSLKPEDTAVYYCATSYTKQGFRYYYWGQGTQVTVSS | high polyreactivity
4 | QVQLVESGGGLVQARGSLRLSCAASGRTFTSYAMGWYRQAPGKERELVAAISKRGGNTYYADSVKGRFTISRDNAKNTVYLQMNSLKPEDTAVYYCAARTWAGRWYGLDYWGQGTQVTVSS | high polyreactivity
5 | QVQLVESGGGLVQAGGSLRLSCAASGSIFSKNAMGWYRQAPGKERELLAAITLNGGSTYYADSVKGRFTNSRDNAKNTVYLQMNSLKPEDTSVFYFAKSDRQWWGYYYQFDYLGQGTQVTVSS | low polyreactivity
6 | QVQLVESGGGLVQAGGSLRLSCAASGRIFPGYAMGWYRQAPGKERELVAAISKGGGSKYYADSVKGRFTISRDNAKNTVYLQMNSLKTEDTAVYYCAAQSYPRSYGLDYWGQGTQVTVSS | high polyreactivity
7 | QVQLVESGGGLVQAGGSLRLICAASGLIFVYYAMGWYRQAPGKERELVAAIDWSSTRTYYADSVKGRFTISRDNATNTVYLQMNSLKPEDTAVYYCAAESRYLSWFDYWGQGTQVTVSS | high polyreactivity
8 | QVQLVESGGGLVQAGGRLRLSCAASGSTFGTYAMGWYRHAPGKERELVAAITRSGGSTYYADSVKGRFTISRDNAKNTVYLQMNSLKPDDTAVFYCAAVSKGYYYWGQGTQVTVSS | high polyreactivity
9 | QVQLVESGRGLVQAGGSLRLSCAASGSTISFYAMGWYRQAPGKERELVAAISFRGGRTYYADSVKGRFTISRDNAKNTVYLQMNSLKPEDTAVYYCNAERYYRYWDKQEDYWGQGTHVTVSS | high polyreactivity
10 | QVQLVESGGGLVQAGGSLRLSCAASGITFGDYAMGWSRQAPGKERELVAGINWSGDGTYYADSVKGRFTISRDNAKNTVYLQMNSLKPEDTAVYYCAAETFYDYGGYDYWGQGTQVTVSS | low polyreactivity
11 | QVQLVESGGGLVQAGGSLRLSCAASGSTYAYDMGSYRQAPGKERELVAAISWDGGDTYYADSVKGRFTISRDNAKNTVYLQMNSLKPEDTAVYYCNTVFQRSGYAAGVDYWGQGTQVTVSS | high polyreactivity
12 | QVQLVESGGGLVQAGGSLRLSCAASGRIFYHYAMGWYRQAPGKERELVATISASGSRTSYADSVKGRFTISRDNAKNTVYLQMNSLKPEDTGVYYCAADAPFWYGLDYWGQGTQVTVSS | high polyreactivity
13 | QDQLVESGGGLVQAGGSLRLSCAASGTFGGYAMGCYRQAPRKERELVARIRRNGGSTYYADSVKGRFTISRDNAKNTVYLQMNCLKPEDTAVYYCATYRYVYGTASYGYWGQGTQVTVSS | high polyreactivity
14 | QVQLVESGGGLVQAGGSLRLSCAASGSIFYGNAMGWYRQAPGKERELVAAISSSGGSTYYADSVKGRFTISRDNAKNTVYLQMISLKPEDTAVYYCAADSTYYNSYDYWGQGTQVTVSS | low polyreactivity
15 | QVQLVESGGGLVQAGGSLRLSCAASGLTFSTNAMGWYRQAPGKEREFVAAISFNGGSTYYADSVKGRFTISRDNAKNTVYLQMNSLKPEDTAVYYWNAVKYRYLEYNYWGQGTQVTVSS | high polyreactivity
16 | QVQLVESGGGLVQAGGSLRLSCAASGFIFAYYAMGLYRQAPGKERELVAAITSDGSTYYADSVKGRFTISRDNAKNTVYLQMNSLKPEDTAVYYCNTYWVLRPGYNYWGQGTQVTVSS | high polyreactivity
17 | QVQLVESGGGLVQAGGSLRLSCAASGSIFVYYAMGWYRQAPGKERELVASISESDGSTSYADSVKGRFTISRDNAKNTVYLQMNSLKPEDTAVYYCAADPYFFWYSPSFDYWGQGSQVTVSS | low polyreactivity
